Data on 69 variants can be found in PMC13397619.

B1: NLV2 TCR alpha chain (CDR3α only) (parent)
chain: AGPMKTSYDKVI
partner: MLVPMVATV

The variants in this experiment derive from B1. As to the kind of experiment: T-Switch: Jurkat TCRβ−/− cells expressing a CDR3 saturation-mutagenesis library, stained with two peptide-HLA-A*02:01 tetramers (original and novel peptide) plus anti-CD3, FACS-sorted into four gates, gDNA sequenced. As to conditions: with HLA-A*02:01 with peptide … (NLV 3-1, the novel peptide), tetramers 1 µg/mL, 30 min on ice, SP, DP and SW gates expanded about 10 days between rounds ('two to three rounds of selection' in the Methods), gate SW: higher = more of the variant in the gate that binds the novel peptide and not the original one = switched binding. Fold enrichment of the CDR3 variant in one FACS gate of a two-tetramer stain, unresolved parent, parent is a CDR3 fragment, scale: fold enrichment, numbering: sequential-on-construct, sequence starts at 1.
As for […] (CDR3 as printed); S7K derived by comparing it with the table's wild-type CDR3 AGPMKTSYDKVI, the enrichment is 0.

For […] (CDR3 as printed); T6C derived by comparing it with the table's wild-type CDR3 AGPMKTSYDKVI, the enrichment came out at 0.

With […] (CDR3 as printed); Y8H derived by comparing it with the table's wild-type CDR3 AGPMKTSYDKVI, the enrichment was 0.

[…] (CDR3 as printed); P3I derived by comparing it with the table's wild-type CDR3 AGPMKTSYDKVI: the enrichment was 0.

Turning to […] (CDR3 as printed); A1W derived by comparing it with the table's wild-type CDR3 AGPMKTSYDKVI, the enrichment was 0.

Take […] (CDR3 as printed); Y8F derived by comparing it with the table's wild-type CDR3 AGPMKTSYDKVI: the enrichment is 0.

Regarding […] (CDR3 as printed); A1I derived by comparing it with the table's wild-type CDR3 AGPMKTSYDKVI, the enrichment was 0.

Regarding […] (CDR3 as printed); K5S derived by comparing it with the table's wild-type CDR3 AGPMKTSYDKVI, the enrichment was determined as 0.

For the variant […] (CDR3 as printed); P3T derived by comparing it with the table's wild-type CDR3 AGPMKTSYDKVI, the enrichment came out at 0.

Consider […] (CDR3 as printed); G2V derived by comparing it with the table's wild-type CDR3 AGPMKTSYDKVI, for which the enrichment is 0.

With […] (CDR3 as printed); I12Q derived by comparing it with the table's wild-type CDR3 AGPMKTSYDKVI, the enrichment stood at 0.

For the variant […] (CDR3 as printed); I12C derived by comparing it with the table's wild-type CDR3 AGPMKTSYDKVI, the enrichment turned out to be 0.

Consider […] (CDR3 as printed); S7E derived by comparing it with the table's wild-type CDR3 AGPMKTSYDKVI, for which the enrichment stood at 0.

As to […] (CDR3 as printed); P3H derived by comparing it with the table's wild-type CDR3 AGPMKTSYDKVI, the enrichment turned out to be 0.

With […] (CDR3 as printed); I12M derived by comparing it with the table's wild-type CDR3 AGPMKTSYDKVI, the enrichment turned out to be 0.

As for […] (CDR3 as printed); T6K derived by comparing it with the table's wild-type CDR3 AGPMKTSYDKVI, the enrichment was 0.282.

As for […] (CDR3 as printed); A1R derived by comparing it with the table's wild-type CDR3 AGPMKTSYDKVI, the enrichment was determined as 0.

With […] (CDR3 as printed); K5G derived by comparing it with the table's wild-type CDR3 AGPMKTSYDKVI, the enrichment is 0.

As for […] (CDR3 as printed); P3L derived by comparing it with the table's wild-type CDR3 AGPMKTSYDKVI, the enrichment came out at 0.

As for […] (CDR3 as printed); M4P derived by comparing it with the table's wild-type CDR3 AGPMKTSYDKVI, the enrichment is 0.

In the case of […] (CDR3 as printed); P3R derived by comparing it with the table's wild-type CDR3 AGPMKTSYDKVI, the enrichment is 0.

[…] (CDR3 as printed); G2Y derived by comparing it with the table's wild-type CDR3 AGPMKTSYDKVI: the enrichment amounted to 0.

On to […] (CDR3 as printed); S7L derived by comparing it with the table's wild-type CDR3 AGPMKTSYDKVI, for which the enrichment was 0.

Regarding […] (CDR3 as printed); S7V derived by comparing it with the table's wild-type CDR3 AGPMKTSYDKVI, the enrichment worked out at 0.

For […] (CDR3 as printed); G2L derived by comparing it with the table's wild-type CDR3 AGPMKTSYDKVI, the enrichment came out at 0.

With […] (CDR3 as printed); K5I derived by comparing it with the table's wild-type CDR3 AGPMKTSYDKVI, the enrichment was 0.

Take […] (CDR3 as printed); S7M derived by comparing it with the table's wild-type CDR3 AGPMKTSYDKVI: the enrichment was 0.

Take […] (CDR3 as printed); D9E derived by comparing it with the table's wild-type CDR3 AGPMKTSYDKVI: the enrichment amounted to 0.

Regarding […] (CDR3 as printed); K10N derived by comparing it with the table's wild-type CDR3 AGPMKTSYDKVI, the enrichment was 0.

As to […] (CDR3 as printed); K5R derived by comparing it with the table's wild-type CDR3 AGPMKTSYDKVI, the enrichment was 0.

As to […] (CDR3 as printed); M4S derived by comparing it with the table's wild-type CDR3 AGPMKTSYDKVI, the enrichment worked out at 0.

On to […] (CDR3 as printed); V11R derived by comparing it with the table's wild-type CDR3 AGPMKTSYDKVI, for which the enrichment is 0.

Take […] (CDR3 as printed); Y8S derived by comparing it with the table's wild-type CDR3 AGPMKTSYDKVI: the enrichment was 0.

For […] (CDR3 as printed); G2M derived by comparing it with the table's wild-type CDR3 AGPMKTSYDKVI, the enrichment came out at 0.

[…] (CDR3 as printed); S7F derived by comparing it with the table's wild-type CDR3 AGPMKTSYDKVI: the enrichment was 0.

Regarding […] (CDR3 as printed); A1C derived by comparing it with the table's wild-type CDR3 AGPMKTSYDKVI, the enrichment is 0.

For the variant […] (CDR3 as printed); Y8C derived by comparing it with the table's wild-type CDR3 AGPMKTSYDKVI, the enrichment was determined as 0.

With […] (CDR3 as printed); K5P derived by comparing it with the table's wild-type CDR3 AGPMKTSYDKVI, the enrichment is 0.

With […] (CDR3 as printed); K5V derived by comparing it with the table's wild-type CDR3 AGPMKTSYDKVI, the enrichment is 0.

As to […] (CDR3 as printed); S7H derived by comparing it with the table's wild-type CDR3 AGPMKTSYDKVI, the enrichment amounted to 0.

[…] (CDR3 as printed); T6Q derived by comparing it with the table's wild-type CDR3 AGPMKTSYDKVI: the enrichment was found to be 0.

Consider […] (CDR3 as printed); P3Q derived by comparing it with the table's wild-type CDR3 AGPMKTSYDKVI, for which the enrichment stood at 0.

In the case of […] (CDR3 as printed); K5M derived by comparing it with the table's wild-type CDR3 AGPMKTSYDKVI, the enrichment was 0.

For the variant […] (CDR3 as printed); K10C derived by comparing it with the table's wild-type CDR3 AGPMKTSYDKVI, the enrichment turned out to be 0.

For […] (CDR3 as printed); D9L derived by comparing it with the table's wild-type CDR3 AGPMKTSYDKVI, the enrichment was 0.

[…] (CDR3 as printed); Y8P derived by comparing it with the table's wild-type CDR3 AGPMKTSYDKVI: the enrichment is 0.

As to […] (CDR3 as printed); A1S derived by comparing it with the table's wild-type CDR3 AGPMKTSYDKVI, the enrichment came out at 0.

As to […] (CDR3 as printed); K10G derived by comparing it with the table's wild-type CDR3 AGPMKTSYDKVI, the enrichment is 0.

With […] (CDR3 as printed); P3D derived by comparing it with the table's wild-type CDR3 AGPMKTSYDKVI, the enrichment came out at 0.

[…] (CDR3 as printed); I12K derived by comparing it with the table's wild-type CDR3 AGPMKTSYDKVI: the enrichment worked out at 0.

On to […] (CDR3 as printed); Y8D derived by comparing it with the table's wild-type CDR3 AGPMKTSYDKVI, for which the enrichment amounted to 0.474.

In the case of […] (CDR3 as printed); T6I derived by comparing it with the table's wild-type CDR3 AGPMKTSYDKVI, the enrichment is 0.

Regarding […] (CDR3 as printed); I12H derived by comparing it with the table's wild-type CDR3 AGPMKTSYDKVI, the enrichment is 0.

Regarding […] (CDR3 as printed); K10V derived by comparing it with the table's wild-type CDR3 AGPMKTSYDKVI, the enrichment amounted to 0.

As to […] (CDR3 as printed); T6M derived by comparing it with the table's wild-type CDR3 AGPMKTSYDKVI, the enrichment stood at 0.

[…] (CDR3 as printed); S7R derived by comparing it with the table's wild-type CDR3 AGPMKTSYDKVI: the enrichment is 0.

In the case of […] (CDR3 as printed); Y8L derived by comparing it with the table's wild-type CDR3 AGPMKTSYDKVI, the enrichment amounted to 0.

Regarding […] (CDR3 as printed); T6A derived by comparing it with the table's wild-type CDR3 AGPMKTSYDKVI, the enrichment came to 0.

In the case of […] (CDR3 as printed); V11N derived by comparing it with the table's wild-type CDR3 AGPMKTSYDKVI, the enrichment amounted to 0.

As to […] (CDR3 as printed); T6P derived by comparing it with the table's wild-type CDR3 AGPMKTSYDKVI, the enrichment is 0.

[…] (CDR3 as printed); D9Q derived by comparing it with the table's wild-type CDR3 AGPMKTSYDKVI: the enrichment stood at 0.

Regarding […] (CDR3 as printed); A1M derived by comparing it with the table's wild-type CDR3 AGPMKTSYDKVI, the enrichment was determined as 0.

In the case of […] (CDR3 as printed); S7I derived by comparing it with the table's wild-type CDR3 AGPMKTSYDKVI, the enrichment was found to be 0.

For […] (CDR3 as printed); A1F derived by comparing it with the table's wild-type CDR3 AGPMKTSYDKVI, the enrichment was determined as 0.

Take […] (CDR3 as printed); G2W derived by comparing it with the table's wild-type CDR3 AGPMKTSYDKVI: the enrichment came out at 0.

[…] (CDR3 as printed); K5E derived by comparing it with the table's wild-type CDR3 AGPMKTSYDKVI: the enrichment was 0.

As for […] (CDR3 as printed); Y8A derived by comparing it with the table's wild-type CDR3 AGPMKTSYDKVI, the enrichment was 77.9.

As for […] (CDR3 as printed); D9H derived by comparing it with the table's wild-type CDR3 AGPMKTSYDKVI, the enrichment was 0.

With […] (CDR3 as printed); D9A derived by comparing it with the table's wild-type CDR3 AGPMKTSYDKVI, the enrichment was 0.
